Reference: patent publication US20090274696A1, “METHODS FOR TREATING INFLAMMATION” (WYETH, priority 2008, published 2009)

Legend:
[1] = tested on: airway epithelium of cultured trachea; assay: Histological examination of tracheal rings and airway epithelium; assay type: cell-based, mouse; details: cultured overnight with FIZZ1 100 nM or LPS 0.1 ng/mL
Procedure: Histological examination of the structure of the airway and the status of the airway epithelial layer was performed in whole/sectional fresh trachea and as well as trachea cultured overnight with and without 100 nM FIZZ1. To understand the role of airway epithelium in regulating contractility of TSM, we measured the contractile response of tracheal rings after the epithelium was mechanically removed. Briefly, airway epithelial cells were removed by gently rubbing the intraluminal surface with polyethylene tubing (Becton Dickinson & Company, MD USA) connected to a Precision Glide needle (30G1/2) followed by perfusion with 1.0 ml air bubbles and then 1.0 ml K-H solution (re). All of the experimental tracheas were stained with H & E solution (CAT hematoxylin, Edgar Degas Eosin Working Solution, Biocare Medical, Concord, Calif.) and photographed under a light microscope at ×4.0 and ×20 magnification. Tracheal morphometric analysis was performed using a computer-based image analysis system consisting of a Nikon Eclipse E800 microscope (Melville, N.Y. USA) with a SPOT RT Slider camera (Diagnostic Instruments, Inc., Sterling Heights, Mich. USA).

[2] = tested on: mouse tracheal epithelium cells (MTEC); assay: Nitrite in MTEC supernatants, Griess reaction; assay type: cell-based; details: PBS, 0.1 ng/mL LPS or 100 nM rFIZZ1; any measured time point; N=3
Procedure: MTEC culture was performed by following the protocol of You et al. (“Growth and differentiation of mouse tracheal epithelial cells: selection of a proliferative population,” Am J Physiol Lung Cell Mol Physiol, 2002, 283:L 1315-1321) with minor modification. Briefly, tracheas were incubated in 1.5 mg/mL pronase (Roche Molecular Biochemicals) for 18 h at 4° C. Cells were treated with 0.5 mg/mL crude pancreatic DNase I (Sigma-Aldrich) on ice for 5 min. After incubation in tissue culture plates for 3-4 h in 5% CO2 at 37° C., nonadherent cells were incubated in a plate coated with type I rat tail collagen (BD Biosciences) in modified BEBM (Lonza, Md. USA) containing 10 μg/ml insulin, 5 μg/ml transferrin, 25 ng/ml epidermal growth factor, 5 μg/ml epinephrine and 30 μg/ml bovine pituitary extract, 0.5 nM Hydrocortisone, 25 ng/ml hEGF, 15 nM Triiodothyronine, 0.25 μg/ml Gentamicin/amphotericin-B and 0.01 μM retinoic acid in 5% CO2 at 37° C. […]
Nitric oxide (NO) was examined by measuring an end product, nitrite, using the Griess reaction (Xu et al., “Arginase and autoimmune inflammation in the central nervous system,” Immunology, 2003; 110:141-148). […] Absorbance was read at 540 nm in an automated microplate reader. […]

[3] = tested on: MLCK, MLC-20, α-actin, G proteins, c-Raf/ERK1/2/p38 MAPK in trachea; assay: Western blot of protein expression in treated trachea; assay type: cell-based, mouse
Procedure: PBS- and FIZZ1-treated trachea were cultured in DMEM overnight for Western blot analysis. Treated and untreated trachea were harvested and homogenized separately in lysis buffer containing 20 mM […], 2.0 mM EGTA, 5.0 mM EDTA, 30 mM sodium fluoride, 40 mM β-glycerophosphate, 20 mM sodium orthovanadate, 1.0 mM phenylmethylsulfonyl-fluoride, 3.0 mM benzamidine, 5 μM pepstatin A, 10 μM leupeptin and 0.5% Triton X-100 at pH 7.2 (KINEXUS, Canada). Tissue supernatants were centrifuged (15,000×g) for 60 min at 4° C. and protein concentrations in the cleared supernatant of homogenized trachea and BAL were examined by bicinchoninic acid assay (BCA) (Pierce Biotechnology, Rockford, Ill.). Absorbance of total protein from each group was measured spectrophotometrically at an optical density of 562 nm and different concentrations of bovine serum albumin (BSA) were applied as a standard curve. Proteins concentrations (μg/ml) were quantified with the standard curve of BSA using BCA assay. Samples were stored at −70° C. until use.
Protein expression levels of were examined using Western blot analysis. Briefly, aliquots (100 μg/well) of BAL supernatant and tracheal lysate were loaded onto 4-20% SDS-PAGE gel in an equal volume. Size-fractionated proteins were transferred to nitrocellulose membrane and then blocked with 5% nonfat dried milk in TBS at room temperature for 60 min. The membrane was individually incubated with primary antibodies to either FIZZ1 (Rabbit anti-mouse FIZZ1, Antigenix America Inc., USA), MLCK, MLC-20, α-actin, Giα1,2, Ggα11, β-actin (Sigma, USA), Gα12/13 (Santa Cruz Biotechnology, Inc., USA), c-Raf, phospho-c-Raf, ERK1/2, phospho-ERK1/2, p38 MAPK or phospho-p38 MAPK (Cell Signaling, Inc., USA) at 4° C. overnight, washed three times with TBS and then incubated with peroxidase-conjugated secondary antibodies for another 60 min. The blot was washed 3 times with TBS and a mixture of Western Blotting Detection Reagent I and II (GE Healthcare Life Sciences, Piscataway, N.J.) was poured on the membrane with gentle agitation for 1 min at room temperature. Immunoreactive bands were detected by chemiluminesence. Protein expression levels were evaluated in relative to expression of β-actin in the same tissue. Quantification of Western blots for phosphorylated signaling proteins was performed using ImageJ and relative band intensity was calculated as % of the intensity of the β-actin protein band.

[4] = 24 hours after rFIZZ1 treatment vs PBS, n=3
[5] = FIZZ1-treated vs PBS-treated trachea, relative to β-actin

B1: rFIZZ1: recombinant FIZZ1 (Leinco Technologies), mouse FIZZ1 protein, resistin-like molecule-α (protein, listed as Mus musculus)
chain: MKTTTCSLLICISLLQLMVPVNTDETIEIIVENKVKELLANIPANYPSTVTKTLSCTSVKTMNRWASCPAGMTATGCACGFACGSWEIQSGDTCNCLCLLV
modifications: (1)..(101) Murine FIZZ1 polypeptide
[1]
  smooth muscle layers, histology: clear and histologically intact
[1]; vs PBS
  epithelial layer of tracheal rings, histology: thinner and some of airway epithelium was denuded
[2]
  changes in nitrite concentration in MTEC supernatants: not obvious
[3]; 100 nM rFIZZ1- vs PBS-treated trachea, normalized to β-actin
  protein expression levels for α-actin and G proteins (Giα1,2, Gqα11, Gα12/13): similar
[3]; 100 nM rFIZZ1, greatly increasing only between 16 and 32 hours
  level of phosphorylation of c-Raf, ERK1/2 and p38 MAPK, kinetic profile: marked time-dependent increase
[3]; [4]
  expression of phospho-ERK1/2: increased
  expression of phospho-c-Raf: increased
  expression of phospho-p38 MAPK: increased
[3]; 24 hours, FIZZ1 vs PBS-cultured trachea
  expression of unphosphorylated c-Raf: slightly increased
[3]; [5]
  expression of MLC-20: increase
  expression of MLCK: increase
